{"source": "patent US20110274702A1", "about": "(INSTITUTE FOR RESEARCH IN BIOMEDICINE, published 2011)", "test_in_all_cases": "cell-based or functional assay", "key": {"[1]": {"molecular_target": "H5N1 A/VN/1203/04 HA on pseudotyped virus (influenza A virus H5N1 A/VN/1203/04)"}, "HA A/VN/1194/04 (H5)": {"molecular_target": "HA A/VN/1194/04 (H5) (influenza A virus H5 A/VN/1194/04)"}, "[2]": {"molecular_target": "H7N1 A/ck/FPV/Ro/34 HA on pseudotyped virus (influenza A virus H7N1 …, UniProt P03459 19-563)"}}, "data": [{"binder": "FI28 variant 1 (antibody, V domains shown) VH: EVQLVESGGGAVQPGESLKLSCAASGFTFSNYGMHWVRQAPGKGLEWVAVISYDGSNKYYADSVKGRFTISRDNSKDTLYLQMNSLRAEDTALFYCAKERPLRLLRYFDWLSGGANDYWGQGTLVTVSS VL: DIVMTQSPDSLAVSLGERATINCKSSQSVLYSSNNKNYLAWYQQKPGQPPKLLIDWASTRESGVPDRFSGSGSGTDFTLTISNLQVEDVAVYYCQQYYRSPSFGQGTKLEIK", "values": [{"measurement": "Neutralization of HA-pseudotypes (IC90, µg/ml)", "setting": "[1]", "value": 0.02, "unit": "µg/mL"}]}, {"binder": "FI6 variant 3 (antibody, V domains shown) VH: QVQLVESGGGVVQPGRSLRLSCAASGFTFSTYAMHWVRQAPGKGLEWVAVISYDANYKYYADSVKGRFTISRDNSKNTLYLQMNSLRAEDTAVYYCAKDSQLRSLLYFEWLSQGYFDYWGQGTLVTVSS VL: not shown", "values": [{"measurement": "Neutralization H5 A/VN/1194/04 pseudovirus, IC50", "setting": "HA A/VN/1194/04 (H5)", "value": 0.0035, "unit": "µg/mL"}, {"measurement": "Neutralization H7 A/ck/FPV Rostock/34 pseudovirus, IC50", "setting": "[2]", "value": 0.0274, "unit": "µg/mL"}]}, {"binder": "FI6 variant 2 (antibody, V domains shown) VH: QVQLVQSGGGVVQPGRSLRLSCVASGFTFSTYAMHWVRQAPGRGLEWVAVISYDGNYKYYADSVKGRFSISRDNSNNTLHLEMNTLRTEDTALYYCAKDSQLRSLLYFEWLSQGYFDPWGQGTLVTVTS VL: DIQMTQSPDSLAVSLGARATINCKSSQSVTFNYKNYLAWYQQKPGQPPKVLIYWASARESGVPDRFSGSGSGTDFTLTISSLQAEDVAVYYCQQHYRTPPTFGQGTKVEIK", "values": [{"measurement": "Neutralization H5 A/VN/1194/04 pseudovirus, IC50", "setting": "HA A/VN/1194/04 (H5)", "value": 0.0054, "unit": "µg/mL"}, {"measurement": "Neutralization H7 A/ck/FPV Rostock/34 pseudovirus, IC50", "setting": "[2]", "value": 0.02, "unit": "µg/mL"}]}]}
